T1: full-length human TIGIT on CHO-K1 cells (CHO-K1 human TIGIT) (human, UniProt Q495A1 22-244)
T1 construct: NCBI XP_024309156.1; entry includes the signal peptide; also called high expression strain 1D2; medium expression strain 2D10
T1 sequence: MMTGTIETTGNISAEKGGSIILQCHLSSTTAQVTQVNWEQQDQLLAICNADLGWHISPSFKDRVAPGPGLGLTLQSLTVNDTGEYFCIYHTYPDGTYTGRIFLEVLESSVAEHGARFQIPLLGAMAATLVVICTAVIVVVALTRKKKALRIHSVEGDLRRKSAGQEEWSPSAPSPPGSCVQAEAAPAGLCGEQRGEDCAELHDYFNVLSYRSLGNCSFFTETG

T2: human TIGIT ECD-his (fusion protein of extracellular domain of human TIGIT and His-tag) (human)
T2 construct: entry includes the signal peptide, limits not readable here
T2 chain: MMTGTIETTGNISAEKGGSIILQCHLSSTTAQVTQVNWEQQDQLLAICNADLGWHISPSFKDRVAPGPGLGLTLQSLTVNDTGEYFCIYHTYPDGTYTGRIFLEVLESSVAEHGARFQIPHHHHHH

T3: human TIGIT ECD-mFc (fusion protein of extracellular domain of human TIGIT and mouse IgG2a Fc fragment) (human)
T3 chain: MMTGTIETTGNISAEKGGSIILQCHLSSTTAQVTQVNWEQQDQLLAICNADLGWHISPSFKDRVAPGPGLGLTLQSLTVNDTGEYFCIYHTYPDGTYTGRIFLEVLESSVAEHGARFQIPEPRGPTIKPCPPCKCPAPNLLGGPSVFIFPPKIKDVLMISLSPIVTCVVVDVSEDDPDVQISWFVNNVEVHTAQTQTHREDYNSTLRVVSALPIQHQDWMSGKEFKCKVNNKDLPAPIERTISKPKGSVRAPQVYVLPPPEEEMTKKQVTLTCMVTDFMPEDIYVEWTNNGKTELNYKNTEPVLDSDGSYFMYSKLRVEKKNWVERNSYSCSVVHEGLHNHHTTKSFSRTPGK


What was measured:
[1] = biological target: T1, full-length human TIGIT on CHO-K1 cells …; assay: FACS, low expression strain
Protocol: (§1) The collected cells were washed once with PBS (Hyclone, CAT #SH30256), resuspended to 2×10⁵/50 μL with 1% BSA-PBS. The antibodies were diluted to 80 nM with 1% BSA-PBS (diluted by 3-fold serial dilution for 12 concentration points). The 50 μL cells were then mixed with 50 μL diluted antibodies, and then incubated at 4° C. for 60 minutes. […] After washing twice with PBS, the cell samples were resuspended with 1% BSA-PBS, 100 μL/well and then analyzed by flow cytometry (BD, Canto II). […] [0298] (c) The effect of anti-TIGIT chimeric antibodies blocking the interaction between Bio-CD155-His and CHO-K1 human TIGIT high expression cell strains detected by FACS

[2] = biological target: T4, full-length cynomolgus monkey TIGIT on CHO-K1 cells (CHO-K1 cynomolgus monkey TIGIT) (cynomolgus monkey); assay: FACS
T4 construct: NCBI XP_015300911.1; also called cynomolgus monkey TIGIT cells
T4 sequence (chain, as listed by the source limits assumed): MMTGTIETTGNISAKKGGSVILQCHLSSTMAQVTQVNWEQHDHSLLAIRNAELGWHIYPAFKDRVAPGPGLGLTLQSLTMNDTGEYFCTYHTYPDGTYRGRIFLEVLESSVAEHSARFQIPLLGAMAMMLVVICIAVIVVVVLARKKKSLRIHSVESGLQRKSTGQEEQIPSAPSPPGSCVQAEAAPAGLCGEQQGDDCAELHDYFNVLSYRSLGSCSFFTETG
Protocol: as §1

[3] = biological target: T1, full-length human TIGIT on CHO-K1 cells …; assay: FACS, competition: Bio-CD155-His to CHO-K1 human TIGIT
Protocol: The collected cells were washed once with PBS (Hyclone, CAT #SH30256), resuspended to 2×10⁵/40 μL with 1% BSA-PBS. The antibodies were diluted to 210 nM with 1% BSA-PBS (diluted by 3-fold serial dilution for 12 concentration points). […] The 40 μL cells were then mixed with 40 μL diluted antibodies and 40 μL diluted Bio-CD155-His, and then incubated at 4° C. for 60 minutes. The cells were washed twice with PBS, resuspended with APC labeled streptavidin (dilution ratio 1:1700, Biolegend, 405243), 100 μL/well, and incubated at 4° C. for 40 minutes. The cell samples were washed twice with PBS, resuspended with 1% BSA-PBS, 100 μL/well and then analyzed by flow cytometry (BD, Canto II). […] [0300] (d) The effect of anti-TIGIT chimeric antibodies blocking the interaction between TIGIT ECD-mFc and CHO-K1 CD155 detected by FACS

[4] = biological target: T2, human TIGIT ECD-his (fusion protein of …); assay: BIAcore kinetics
[5] = biological target: T3, human TIGIT ECD-mFc (fusion protein of …); assay: ELISA
Protocol: (§2) After discarding the coating solution, the plate was added with 5% skim milk powder (Sangon Biotech, CAT #A600669-0250)-PBS, 250 μL/well, and incubated at 37° C. for 2-4 hours. […] The enzyme-labeled plate was then washed with 0.05% Tween 20-PBS for 3 times on the Microplate Washer, added with tested antibodies diluted to 13 nM with 1% BSA (diluted by 3-fold serial dilution for 12 concentration points), 50 μL/well, and incubated at 37° C. for 1.5-2 hours. The plate was washed with 0.05% Tween 20-PBS for 3 times on the Microplate Washer, then added with HRP enzyme-labeled antibodies (Merck, CAT #AP113P) diluted with 1% BSA (Sangon Biotech, CAT #A500023-0100)-PBS at a dilution ratio of 1:5000, 50 μL/well, and incubated at 37° C. for 1 hour. After washing 3 times with 0.05% Tween 20-PBS on the Microplate Washer, the plate was added with TMB chromogenic solution (KPL, CAT #52-00-03), 50 μL/well, and incubated at room temperature for 7-10 minutes. 1M HCL, 50 μL/well, was then added into the plate to terminate the reaction, and the OD450 nm was read by a microplate reader (Biotek, Powerwave HT). […] (b) The binding activity of anti-TIGIT chimeric antibodies to CHO-K1 human TIGIT (cells with high, medium and low expression levels) and CHO-KI cynomolgus monkey TIGIT detected by FACS.

[6] = biological target: T5, cynomolgus monkey TIGIT ECD-mFc (extracellular domain of cynomolgus monkey TIGIT and mouse IgG2a Fc fragment) (cynomolgus monkey); assay: ELISA
T5 construct: entry includes the signal peptide, limits not readable here
T5 sequence (chain, as listed by the source limits assumed): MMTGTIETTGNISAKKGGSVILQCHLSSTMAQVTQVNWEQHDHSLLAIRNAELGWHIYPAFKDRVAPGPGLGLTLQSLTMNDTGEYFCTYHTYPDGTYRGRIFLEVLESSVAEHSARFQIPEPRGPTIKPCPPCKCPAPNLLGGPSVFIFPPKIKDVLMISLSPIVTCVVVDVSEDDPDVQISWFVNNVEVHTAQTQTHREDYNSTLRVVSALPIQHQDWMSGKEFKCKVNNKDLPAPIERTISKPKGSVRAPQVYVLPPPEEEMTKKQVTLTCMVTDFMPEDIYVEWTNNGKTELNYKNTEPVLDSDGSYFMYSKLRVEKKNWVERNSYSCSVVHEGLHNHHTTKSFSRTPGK
Protocol: as §2

[7] = biological target: T1, full-length human TIGIT on CHO-K1 cells …; assay: FACS, high expression strain
Protocol: as §1

[8] = biological target: T1, full-length human TIGIT on CHO-K1 cells …; assay: FACS, medium expression strain
Protocol: as §1

[9] = biological target: T3, human TIGIT ECD-mFc (fusion protein of …); assay: FACS, competition: hTIGIT ECD-mFc to CHO-K1 CD155
Protocol: The collected CHO-K1 CD155 cells were washed once with PBS (Hyclone, CAT #SH30256) and resuspended to 2×10⁵/40 μL with 1% BSA-PBS. The tested antibodies were diluted to 600 nM with 1% BSA-PBS (diluted by 2.5-fold serial dilution for 12 concentration points). The TIGIT ECD-mFc was diluted with 1% BSA-PBS to 6 μg/mL. The 40 μL cells were then mixed with 40 μL diluted antibodies and 40 μL diluted TIGIT ECD-mFc, and then incubated at 4° C. for 60 minutes. […] The cell samples were washed twice with PBS, resuspended to 100 μL/well with 1% BSA-PBS and then analyzed by flow cytometry (BD, Canto II).

Binder | EC50 [1] [nM] | EC50 [2] [nM] | IC50 [3] [nM] | Kd [4] [nM] | koff [4] [s⁻¹] | kon [4] [M⁻¹ s⁻¹] | EC50 [5] [nM] | EC50 [6] [nM] | EC50 [7] [nM] | EC50 [8] [nM] | IC50 [9] [nM]
TIGIT-CHI-005 (antibody, V domains shown, human-mouse chimeric antibody) VH: QVQLQQSGAELVRPGTSVKVSCKASGYAFTNYLIEWVKQRPGQGLEWIGVINPGSGGTNYKEKFKGKATLTADKSSSTAYMQLSSLTSEDSAVYFCARGEYFFFDYWGQGTTLTVSS VL: DIVMTQSHKFMSTSVGDRVSITCKASQHVSNGVAWYQHKPGQSPKLLIYSASYRYTGVPDRFTGTGSGTDFTFTISSVQAEDLAVYYCQQHYNTPHTFGGGTKLEIK | 0.229 | 0.0264 | 0.158 | 0.0536 | 0.000192 | 3.59e+06 | 0.0173 | 0.017 | 0.342 | 0.316 | 0.363
TIGIT-CHI-002 (antibody, V domains shown, human-mouse chimeric antibody) VH: EVQLQESGPGLAKPSQTLSLACSVTGYSITSDSWNWIRKFPGNKLEYMGYISYSGNTYYNPSLKSRISITRDTSKNQFYLQLNSVTTEDTATYYCARLDFSNYGGAVDYWGQGTSVTVSS VL: DIVMTQSHTFMSTSVGDRVSITCKASQNVRTAVAWYQQKPGQSPKLMIYSASYRYTGVPDRFTGSGSGTDFTFTISSVQAEDLAVYYCQQYYTTPWTFGGGAKLEIQ | 0.218 | 0.029 | 0.152 | 0.0697 | 0.000315 | 4.53e+06 | 0.0181 | 0.0165 | 0.299 | 0.29 | 0.368

Second part, the binder after the results:

EC50 [1] [nM] | EC50 [2] [nM] | IC50 [3] [nM] | Kd [4] [nM] | koff [4] [s⁻¹] | kon [4] [M⁻¹ s⁻¹] | EC50 [5] [nM] | EC50 [6] [nM] | EC50 [7] [nM] | EC50 [8] [nM] | IC50 [9] [nM] | Binder
0.352 | 0.0359 | 0.384 | 0.3 | 0.000456 | 1.52e+06 | 0.0145 | 0.0163 | 0.517 | 0.394 | 0.582 | TIGIT-CHI-070 (antibody, V domains shown, human-mouse chimeric antibody) VH: QVQLQQPGTELVKPGASVKLSCRASGYTFTNYYMHWVKQRPGRGLEWIGRIDPDSGGSKYNEKFKSKATLTVDKLSSTAYMQLSSLTSEDSAVYYCAREGHYGFYSDYWGQGTTLTVSS VL: DIQMTQSPASLSASVGETVTITCRVSENIYSYLAWYQQKQGKSPQLLVYNAKTLAEGVPSRFSGSGSGTQFSLKINSLQPEDFGNYYCQHHYGNPLTFGAGTKLDLK
0.329 | 0.0731 | 0.246 | 0.132 | 0.00017 | 1.29e+06 | 0.0167 | 0.0389 | 0.502 | 0.481 | 0.572 | TIGIT-CHI-006 (antibody, V domains shown, human-mouse chimeric antibody) VH: EVQLQESGPGLAKPSQTPSLTCSVTGYSMTSDYWNWIRKFPGNKLEYMGYISYSGRTYYNPSLKSRISITRDTSKNQFYLQLNSVTTEDTATYYCARGDYSNYGGAMYDWGQGTSVTVSS VL: DIVMTQSHKFMSTSVGDRVSITCRASQGVSTTIAWYQQKPGQSPKLLIYSASYRYTGVPDRFTGSGSGTDFTFTISGVQAEDLAVYYCQQYYSSPFTFGGGTKLEIK
